Experimental data published in US11440969B2, “Use of human epididymis protein 4 (HE4) for assessing responsiveness of MUC 16-positive cancer treatment” (Genentech, Inc., priority 2016, dated 2022).

Assay: Safety of DMUC5754A in patients: related adverse events, DLT, MTD/RP2D (NCI CTCAE v4.0)
Assay type: in vivo, human
Details: for Median time to onset of first PN on study / On study PN = No, patients n (%) / On study PN = Yes, patients n (%): q3w dosing
Protocol: This multicenter, open-label, dose-escalation study was designed to identify the recommended Phase II dose (RP2D) of DMUC5754A in patients with platinum-resistant OC or unresectable pancreatic cancer. In the single-agent dose escalation stage utilizing a 3+3 enrollment scheme, patients were given intravenous DMUC5754A (Genentech Inc.) 0.3-3.2 mg/kg every 3 weeks (q3w) to evaluate the safety, tolerability, and pharmacokinetics of DMUC5754A. Following determination of the maximum tolerated dose (MTD), dose-expansion cohorts were enrolled at the RP2D of 2.4 mg/kg to further characterize the safety and preliminary clinical efficacy of DMUC5754A.
Dosing on a weekly (qlw) schedule was also evaluated at the RP2D, employing a 3+3 design to determine the MTD of weekly dosing, followed by a cohort expansion to further characterize the safety and activity of q1w dosing.
Safety was evaluated according to NCI CTCAE v4.0. […] The maximum tolerated dose (MTD) was defined as the dose at which ≤1 of 6 patients at an assigned dose with protocol-defined DLT. Patients who experienced a DLT or adverse event (AE) meeting DLT criteria after the DLT assessment window were allowed to delay dosing for up to 2 weeks or undergo a dose reduction.

[1] = q3w patients, over all dose levels

B1: DMUC5754A: antibody-drug conjugate: humanized IgG1 anti-MUC16 monoclonal antibody and MMAE, linked through protease labile linker maleimidocaproyl-valine-citrulline-p-aminobenzyloxycarbonyl (conjugate, chains of the INN, looked up)
VH: EVQLVESGGGLVQPGGSLRLSCAASGYSITNDYAWNWVRQAPGKGLEWVGYISYSGYTTYNPSLKSRFTISRDTSKNTLYLQMNSLRAEDTAVYYCARWTSGLDYWGQGTLVTVSS
VL: DIQMTQSPSSLSASVGDRVTITCKASDLIHNWLAWYQQKPGKAPKLLIYGATSLETGVPSRFSGSGSGTDFTLTISSLQPEDFATYYCQQYWTTPFTFGQGTKVEIK
modifications: MMAE via mc-vc-PABC linker
Pyrexia (related AE), patients (q3w 0.3 mg/kg (n = 3)): 0
Vomiting (related AE), patients (q3w 0.3 mg/kg (n = 3)): 0
Alopecia (related AE), patients (q3w 0.6 mg/kg (n = 3)): 0
Any adverse events (related), patients (q3w 0.6 mg/kg (n = 3)): 1
Arthralgia (related AE), patients (q3w 0.6 mg/kg (n = 3)): 0
Asthenia (related AE), patients (q3w 0.6 mg/kg (n = 3)): 0
Decreased appetite (related AE), patients (q3w 0.6 mg/kg (n = 3)): 0
Diarrhea (related AE), patients (q3w 0.6 mg/kg (n = 3)): 1
Dysgeusia (related AE), patients (q3w 0.6 mg/kg (n = 3)): 0
Fatigue (related AE), patients (q3w 0.6 mg/kg (n = 3)): 1
Hypokalemia (related AE), patients (q3w 0.6 mg/kg (n = 3)): 0
Hypomagnesaemia (related AE), patients (q3w 0.6 mg/kg (n = 3)): 0
Hypophosphatemia (related AE), patients (q3w 0.6 mg/kg (n = 3)): 0
Nausea (related AE), patients (q3w 0.6 mg/kg (n = 3)): 0
Neutropenia (related AE), patients (q3w 0.6 mg/kg (n = 3)): 0
Peripheral neuropathy (related AE), patients (q3w 0.6 mg/kg (n = 3)): 0
Pyrexia (related AE), patients (q3w 0.6 mg/kg (n = 3)): 0
Vomiting (related AE), patients (q3w 0.6 mg/kg (n = 3)): 1
Alopecia (related AE), patients (q3w 1.2 mg/kg (n = 3)): 0
Any adverse events (related), patients (q3w 1.2 mg/kg (n = 3)): 3
Arthralgia (related AE), patients (q3w 1.2 mg/kg (n = 3)): 0
Asthenia (related AE), patients (q3w 1.2 mg/kg (n = 3)): 0
Decreased appetite (related AE), patients (q3w 1.2 mg/kg (n = 3)): 2
Diarrhea (related AE), patients (q3w 1.2 mg/kg (n = 3)): 1
Dysgeusia (related AE), patients (q3w 1.2 mg/kg (n = 3)): 0
Fatigue (related AE), patients (q3w 1.2 mg/kg (n = 3)): 1
Hypokalemia (related AE), patients (q3w 1.2 mg/kg (n = 3)): 0
Hypomagnesaemia (related AE), patients (q3w 1.2 mg/kg (n = 3)): 0
Hypophosphatemia (related AE), patients (q3w 1.2 mg/kg (n = 3)): 0
Nausea (related AE), patients (q3w 1.2 mg/kg (n = 3)): 0
Neutropenia (related AE), patients (q3w 1.2 mg/kg (n = 3)): 0
Peripheral neuropathy (related AE), patients (q3w 1.2 mg/kg (n = 3)): 0
Pyrexia (related AE), patients (q3w 1.2 mg/kg (n = 3)): 0
Vomiting (related AE), patients (q3w 1.2 mg/kg (n = 3)): 1
Alopecia (related AE), patients (q3w 1.8 mg/kg (n = 3)): 1
Any adverse events (related), patients (q3w 1.8 mg/kg (n = 3)): 2
Arthralgia (related AE), patients (q3w 1.8 mg/kg (n = 3)): 2
Asthenia (related AE), patients (q3w 1.8 mg/kg (n = 3)): 0
Decreased appetite (related AE), patients (q3w 1.8 mg/kg (n = 3)): 1
Diarrhea (related AE), patients (q3w 1.8 mg/kg (n = 3)): 2
Dysgeusia (related AE), patients (q3w 1.8 mg/kg (n = 3)): 0
Fatigue (related AE), patients (q3w 1.8 mg/kg (n = 3)): 1
Hypokalemia (related AE), patients (q3w 1.8 mg/kg (n = 3)): 0
Hypomagnesaemia (related AE), patients (q3w 1.8 mg/kg (n = 3)): 2
Hypophosphatemia (related AE), patients (q3w 1.8 mg/kg (n = 3)): 1
Nausea (related AE), patients (q3w 1.8 mg/kg (n = 3)): 1
Neutropenia (related AE), patients (q3w 1.8 mg/kg (n = 3)): 0
Peripheral neuropathy (related AE), patients (q3w 1.8 mg/kg (n = 3)): 2
Pyrexia (related AE), patients (q3w 1.8 mg/kg (n = 3)): 2
Vomiting (related AE), patients (q3w 1.8 mg/kg (n = 3)): 0
Alopecia (related AE), patients (q3w 2.4 mg/kg (n = 39)): 9
Any adverse events (related), patients (q3w 2.4 mg/kg (n = 39)): 39
Arthralgia (related AE), patients (q3w 2.4 mg/kg (n = 39)): 5
Asthenia (related AE), patients (q3w 2.4 mg/kg (n = 39)): 5
Decreased appetite (related AE), patients (q3w 2.4 mg/kg (n = 39)): 11
Diarrhea (related AE), patients (q3w 2.4 mg/kg (n = 39)): 8
Dysgeusia (related AE), patients (q3w 2.4 mg/kg (n = 39)): 7
Fatigue (related AE), patients (q3w 2.4 mg/kg (n = 39)): 26
Hypokalemia (related AE), patients (q3w 2.4 mg/kg (n = 39)): 4
Hypomagnesaemia (related AE), patients (q3w 2.4 mg/kg (n = 39)): 6
Hypophosphatemia (related AE), patients (q3w 2.4 mg/kg (n = 39)): 2
Nausea (related AE), patients (q3w 2.4 mg/kg (n = 39)): 15
Neutropenia (related AE), patients (q3w 2.4 mg/kg (n = 39)): 8
Peripheral neuropathy (related AE), patients (q3w 2.4 mg/kg (n = 39)): 17
Pyrexia (related AE), patients (q3w 2.4 mg/kg (n = 39)): 7
Vomiting (related AE), patients (q3w 2.4 mg/kg (n = 39)): 10
Alopecia (related AE), patients (q3w 3.2 mg/kg (n = 3)): 1
Any adverse events (related), patients (q3w 3.2 mg/kg (n = 3)): 3
Arthralgia (related AE), patients (q3w 3.2 mg/kg (n = 3)): 1
Asthenia (related AE), patients (q3w 3.2 mg/kg (n = 3)): 1
Decreased appetite (related AE), patients (q3w 3.2 mg/kg (n = 3)): 1
Diarrhea (related AE), patients (q3w 3.2 mg/kg (n = 3)): 1
Dysgeusia (related AE), patients (q3w 3.2 mg/kg (n = 3)): 1
Fatigue (related AE), patients (q3w 3.2 mg/kg (n = 3)): 2
Hypokalemia (related AE), patients (q3w 3.2 mg/kg (n = 3)): 2
Hypomagnesaemia (related AE), patients (q3w 3.2 mg/kg (n = 3)): 0
Hypophosphatemia (related AE), patients (q3w 3.2 mg/kg (n = 3)): 3
Nausea (related AE), patients (q3w 3.2 mg/kg (n = 3)): 3
Neutropenia (related AE), patients (q3w 3.2 mg/kg (n = 3)): 1
Peripheral neuropathy (related AE), patients (q3w 3.2 mg/kg (n = 3)): 1
Pyrexia (related AE), patients (q3w 3.2 mg/kg (n = 3)): 2
Vomiting (related AE), patients (q3w 3.2 mg/kg (n = 3)): 3
Alopecia (related AE), patients (q3w All Patients (n = 54)): 11
Any adverse events (related), patients (q3w All Patients (n = 54)): 51
Arthralgia (related AE), patients (q3w All Patients (n = 54)): 8
Asthenia (related AE), patients (q3w All Patients (n = 54)): 6
Decreased appetite (related AE), patients (q3w All Patients (n = 54)): 16
Diarrhea (related AE), patients (q3w All Patients (n = 54)): 13
Dysgeusia (related AE), patients (q3w All Patients (n = 54)): 8
Fatigue (related AE), patients (q3w All Patients (n = 54)): 31
Hypokalemia (related AE), patients (q3w All Patients (n = 54)): 6
Hypomagnesaemia (related AE), patients (q3w All Patients (n = 54)): 9
Hypophosphatemia (related AE), patients (q3w All Patients (n = 54)): 6
Nausea (related AE), patients (q3w All Patients (n = 54)): 20
Neutropenia (related AE), patients (q3w All Patients (n = 54)): 9
Peripheral neuropathy (related AE), patients (q3w All Patients (n = 54)): 21
Pyrexia (related AE), patients (q3w All Patients (n = 54)): 11
Vomiting (related AE), patients (q3w All Patients (n = 54)): 15
patients with AEs leading to treatment discontinuation (q3w cohorts, 3/54 patients): 5.6%
Median time to onset of first PN on study (Prior neuropathy = No): 71 days
On study PN = No, patients n (%) (Prior neuropathy = No): 11 (20%)
On study PN = Yes, patients n (%) (Prior neuropathy = No): 18 (33%)
Median time to onset of first PN on study (Prior neuropathy = Yes): 148 days
On study PN = No, patients n (%) (Prior neuropathy = Yes): 20 (37%)
On study PN = Yes, patients n (%) (Prior neuropathy = Yes): 5 (9%)
Median time to onset of first PN on study (Total): 99 days
On study PN = No, patients n (%) (Total): 31 (57%)
On study PN = Yes, patients n (%) (Total): 23 (43%)
Drug-related SAE hypocalcemia, patients (q3w patients): 1
Drug-related SAE neutropenia, patients (q3w patients): 1
Drug-related SAE small intestine obstruction, patients (q3w patients): 2
alopecia, related AE [1]: 20.4%
decreased appetite, related AE [1]: 29.6%
diarrhea, related AE [1]: 24.1%
fatigue, related AE [1]: 57.4%
nausea, related AE [1]: 37.0%
peripheral sensory neuropathy, related AE [1]: 27.8%
pyrexia, related AE [1]: 20.4%
vomiting, related AE [1]: 27.8%
Grade ≥3 related fatigue (q3w patients, total): 7.4%
Grade ≥3 related neutropenia (q3w patients, total): 9.3%
RP2D (q3w schedule): 2.4 mg/kg
Grade ≥3 related fatigue, patients (q3w, at 2.4 mg/kg): 4
Grade ≥3 related neutropenia, patients (q3w, at 2.4 mg/kg): 4
